{
  "source": "paper PMC8931120",
  "about": "“LC3B is an RNA-binding protein to trigger rapid mRNA degradation during autophagy”",
  "key": {"[1]": {"molecular_target": "LC3B-WT (mature, cleaved by ATG4B) (human, UniProt Q9GZQ8 1-120)", "assay": "EMSA; 1 mM Mg2+, 2 uM probe; EMSA: 40 mM Tris pH 8.0, 30 mM KCl, 1 mM MgCl2, 0.01% NP-40, 1 mM DTT, 30 C 1 h; FP: same buffer without NP-40, 100 nM RNA final (200 nM stock diluted 1:2), pro"}, "LC3B-R/Q": {"molecular_target": "LC3B-R/Q (human, UniProt Q9GZQ8 1-120, R68Q;R69Q;R70Q)", "assay": "EMSA; 1 mM Mg2+, 2 uM probe; EMSA: 40 mM Tris pH 8.0, 30 mM KCl, 1 mM MgCl2, 0.01% NP-40, 1 mM DTT, 30 C 1 h; FP: same buffer without NP-40, 100 nM RNA final (200 nM stock diluted 1:2), pro"}},
  "data": [
    {"binder": "AAUAAAAAUAAAAAUAAA (ssRNA)", "note": "[Cy5-AAUAAAx3]", "values": [
      {"measurement": "binding result", "setting": "[1]", "result": "binds"},
      {"measurement": "binding result", "setting": "LC3B-R/Q", "result": "no binding"}
    ]}
  ]
}
